Results as given in patent publication US20160017348A1 (published 2016).
Values belong to the binder of their own block, whether it stands above or below them.

What was measured:
[1] = molecular target: T1, H3(1-15)K9me2 peptide (UniProt P59226 2-16, dimethyl-lysine at K9); assay: ITC; FIG. 3A
T1 peptide: ARTKQTARKSTGGKA

[2] = molecular target: T1, H3(1-15)K9me2 peptide; assay: ITC; FIG. 3B
[3] = molecular target: H3K4me2; assay: ITC; FIG. 3B
[4] = molecular target: H4K20me2; assay: ITC; FIG. 3B

Kd [1]: 1.9 µM
Kd [2]: 1.9 µM
B1: SHH1 SAWADEE domain (residues 125-258) (other)
chain: ADLAFEAKSARDYAWYDVSSFLTYRVLRTGELEVRVRFSGFDNRHDEWVNVKTSVRERSIPVEPSECGRVNVGDLLLCFQEREDQALYCDGHVLNIKRGIHDHARCNCVFLVRYELDNTEESLGLERICRRPEE

Kd [3]: 52.1 µM
Kd [4]: 80.6 µM
B2: SAWADEE domain (other)
chain: B1 chain
